Read-outs that look alike come from different tables or passages of the source. Each block holds one substance with its values, some of them ahead of it.
How the values were obtained:
VEGF (human) [1] = target: VEGF (human) (UniProt P15692)
VEGF (human) [2] = target: VEGF (human) (UniProt P15692); remark: listed apart in the source
VEGF (human) [3] = target: VEGF (human) (UniProt P15692); remark: listed apart in the source
human Tie2 (human) [4] = target: human Tie2 (human) (UniProt Q02763)
human Tie2 (human) [5] = target: human Tie2 (human) (UniProt Q02763); remark: listed apart in the source
human Tie2 (human) [6] = target: human Tie2 (human) (UniProt Q02763); remark: listed apart in the source
human Tie2 (human) [7] = target: human Tie2 (human) (UniProt Q02763); remark: listed apart in the source
human Tie2 (human) [8] = target: human Tie2 (human) (UniProt Q02763); remark: listed apart in the source

Chain of Ang1 (Q15389 20-498 limits assumed): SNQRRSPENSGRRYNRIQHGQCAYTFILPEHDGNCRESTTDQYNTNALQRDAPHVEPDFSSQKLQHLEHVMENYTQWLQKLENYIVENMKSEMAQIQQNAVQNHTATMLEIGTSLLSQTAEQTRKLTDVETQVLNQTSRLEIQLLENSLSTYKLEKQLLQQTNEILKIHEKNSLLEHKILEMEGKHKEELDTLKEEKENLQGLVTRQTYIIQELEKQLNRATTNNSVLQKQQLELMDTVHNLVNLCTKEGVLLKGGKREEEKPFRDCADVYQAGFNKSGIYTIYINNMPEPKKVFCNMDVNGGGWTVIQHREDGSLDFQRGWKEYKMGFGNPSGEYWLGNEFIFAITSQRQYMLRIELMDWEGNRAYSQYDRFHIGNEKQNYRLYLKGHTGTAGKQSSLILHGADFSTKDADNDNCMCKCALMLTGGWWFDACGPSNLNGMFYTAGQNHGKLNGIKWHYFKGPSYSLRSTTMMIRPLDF
Chain of human Tie2 (human) (Q02763 23-1124): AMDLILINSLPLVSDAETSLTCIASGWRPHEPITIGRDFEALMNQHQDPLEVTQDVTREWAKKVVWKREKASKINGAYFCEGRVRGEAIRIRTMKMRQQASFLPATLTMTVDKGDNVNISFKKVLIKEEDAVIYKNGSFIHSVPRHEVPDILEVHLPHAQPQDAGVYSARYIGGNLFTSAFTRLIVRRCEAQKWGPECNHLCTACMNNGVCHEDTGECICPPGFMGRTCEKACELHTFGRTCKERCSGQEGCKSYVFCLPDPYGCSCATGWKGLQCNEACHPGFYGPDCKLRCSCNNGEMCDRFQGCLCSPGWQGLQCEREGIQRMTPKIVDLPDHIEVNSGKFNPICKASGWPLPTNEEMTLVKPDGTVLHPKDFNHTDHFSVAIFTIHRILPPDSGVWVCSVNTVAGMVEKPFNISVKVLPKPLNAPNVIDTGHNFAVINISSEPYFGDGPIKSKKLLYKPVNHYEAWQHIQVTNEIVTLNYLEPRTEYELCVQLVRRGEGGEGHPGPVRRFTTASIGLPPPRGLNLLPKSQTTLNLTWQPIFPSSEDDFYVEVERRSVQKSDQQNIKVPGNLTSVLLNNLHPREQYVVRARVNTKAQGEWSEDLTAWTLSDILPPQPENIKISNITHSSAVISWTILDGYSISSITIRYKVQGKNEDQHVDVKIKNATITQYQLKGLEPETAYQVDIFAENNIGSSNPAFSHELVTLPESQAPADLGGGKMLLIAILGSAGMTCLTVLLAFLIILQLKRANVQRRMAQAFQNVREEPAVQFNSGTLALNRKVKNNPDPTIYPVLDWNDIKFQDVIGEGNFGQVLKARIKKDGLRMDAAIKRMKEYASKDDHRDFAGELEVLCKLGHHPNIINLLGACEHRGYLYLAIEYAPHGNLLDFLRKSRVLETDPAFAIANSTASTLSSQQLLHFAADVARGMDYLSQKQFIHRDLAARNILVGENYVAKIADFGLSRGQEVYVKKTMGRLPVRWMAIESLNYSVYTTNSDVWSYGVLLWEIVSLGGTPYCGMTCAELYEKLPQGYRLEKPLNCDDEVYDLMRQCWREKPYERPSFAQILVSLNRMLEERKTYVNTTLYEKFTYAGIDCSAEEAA
Chain of VEGF (human) (P15692 other isoform, or with tags, fused parts or gaps limits assumed): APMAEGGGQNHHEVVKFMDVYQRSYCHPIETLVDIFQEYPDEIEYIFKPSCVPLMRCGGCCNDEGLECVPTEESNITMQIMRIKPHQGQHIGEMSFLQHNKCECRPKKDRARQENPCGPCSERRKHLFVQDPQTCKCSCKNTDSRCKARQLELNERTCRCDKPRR
Chain of Aflibercept-LALA-PG (Fc fusion) (chain): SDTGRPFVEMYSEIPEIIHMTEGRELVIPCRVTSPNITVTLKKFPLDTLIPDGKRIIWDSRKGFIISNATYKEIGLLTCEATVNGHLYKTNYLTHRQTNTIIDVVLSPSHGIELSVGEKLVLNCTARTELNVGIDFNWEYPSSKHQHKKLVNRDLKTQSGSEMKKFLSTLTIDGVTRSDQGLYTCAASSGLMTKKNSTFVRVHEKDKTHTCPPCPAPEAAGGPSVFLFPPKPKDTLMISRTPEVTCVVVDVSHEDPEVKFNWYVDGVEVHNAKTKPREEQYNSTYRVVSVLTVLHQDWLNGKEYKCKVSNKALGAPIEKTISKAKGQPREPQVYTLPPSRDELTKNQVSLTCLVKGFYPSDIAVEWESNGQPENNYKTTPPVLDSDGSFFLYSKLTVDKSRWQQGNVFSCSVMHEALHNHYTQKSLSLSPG
Chain of Aflibercept (Fc fusion) (chain): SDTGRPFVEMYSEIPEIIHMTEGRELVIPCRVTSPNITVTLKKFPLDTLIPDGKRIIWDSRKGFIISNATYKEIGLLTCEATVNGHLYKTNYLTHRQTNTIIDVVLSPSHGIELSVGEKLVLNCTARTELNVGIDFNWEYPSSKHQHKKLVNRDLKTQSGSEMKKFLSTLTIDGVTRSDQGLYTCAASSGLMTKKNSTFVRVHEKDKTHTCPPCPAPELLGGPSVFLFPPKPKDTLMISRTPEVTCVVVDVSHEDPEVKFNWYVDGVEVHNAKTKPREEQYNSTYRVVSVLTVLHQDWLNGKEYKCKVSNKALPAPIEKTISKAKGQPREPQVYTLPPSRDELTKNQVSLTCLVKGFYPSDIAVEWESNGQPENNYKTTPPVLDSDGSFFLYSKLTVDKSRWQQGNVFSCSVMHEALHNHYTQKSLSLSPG

EC50, VEGF inhibition, KDR/NFAT-RE HEK293 luciferase reporter [Panel C] (VEGF (human) [1]): 280 pM
Substance: Aflibercept (Fc fusion)

EC50, VEGF neutralisation, KDR/NFAT-RE HEK293 luciferase reporter (VEGF (human) [2]): 560 pM
IC50 (read off the curve); % VEGF activity, KDR/NFAT-RE HEK293 luciferase reporter [Panel A] (VEGF (human) [3]): 600 pM
Substance: Aflibercept-LALA-PG (Fc fusion)

EC50, pTie2 in HUVEC (in vitro potency) (human Tie2 (human) [4]): 4.58 nM
EC50, pAkt in HUVEC (MSD ELISA) [Panel B] (human Tie2 (human) [5]): 1.71 nM
EC50, pAkt in HUVEC (MSD ELISA) [Panel B] (human Tie2 (human) [6]): 4.1 nM
EC50, pTie2 in HUVEC, W/ VEGF (20 nM VEGF-165 per paragraph 153) [Panel E] (human Tie2 (human) [7]): 2.4 nM
EC50, pTie2 in HUVEC, W/O VEGF [Panel E] (human Tie2 (human) [7]): 1.61 nM
EC50, pTIE2 in HUVEC [Panel C] (human Tie2 (human) [8]): 1.77 nM
Substance: Ang1 (from UniProt Q15389 20-498) (ligand)

Source: US20250250343A1
